The values below come from patent US20110262931A1 (published 2011).

This assay has as its target T1, mast cell carboxypeptidase purified from human skin (human, UniProt P15088 110-417).
T1 construct: also called human skin carboxypeptidase; carboxypeptidase purified from skin
T1 sequence (looked up): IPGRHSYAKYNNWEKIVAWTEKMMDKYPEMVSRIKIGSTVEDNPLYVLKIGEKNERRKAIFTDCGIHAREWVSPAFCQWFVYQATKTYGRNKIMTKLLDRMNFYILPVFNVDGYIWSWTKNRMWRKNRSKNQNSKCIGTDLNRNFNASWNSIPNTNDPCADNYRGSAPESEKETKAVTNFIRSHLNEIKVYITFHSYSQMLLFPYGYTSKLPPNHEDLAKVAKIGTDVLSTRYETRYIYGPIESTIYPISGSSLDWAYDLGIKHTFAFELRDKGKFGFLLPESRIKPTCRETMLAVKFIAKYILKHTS
Description: affinity chromatography on PCI-agarose. Here is the method: Mast cell carboxypeptidase was purified from finely chopped extracts of human skin (obtained from macroscopically normal tissue at leg amputation) using a method adapted from that of Goldstein et al. (1989, ibid). […] After washing the column, carboxypeptidase was eluted with unconjugated PCI and dialysed to remove the inhibitor. The purity of the enzyme preparation was assessed by SDS-PAGE and silver staining (Pierce, Rockford, Ill., USA). Proteolytic activity was determined by monitoring the cleavage of […] hippuryl-Phe-Arg (Sigma) at 260 nm.

QQHADPICNKPCKTHDDCSGAWFCQACWNSARTCGPYVG (other, UniProt P01075 1-39, looked up, also called PCI) [potato tuber carboxypeptidase inhibitor]: the binding result is listed as “binds”.
